Tests used:
[1] = target: β subunit of E. coli RNAP (E. coli, UniProt P0A8V2 1-1342); experiment: cryo-EM structure
[2] = target: β’ subunit of E. coli RNAP (E. coli, UniProt P0A8T7 1-1407); experiment: cryo-EM structure
Sequence of β’ subunit of E. coli RNAP (P0A8T7 whole entry): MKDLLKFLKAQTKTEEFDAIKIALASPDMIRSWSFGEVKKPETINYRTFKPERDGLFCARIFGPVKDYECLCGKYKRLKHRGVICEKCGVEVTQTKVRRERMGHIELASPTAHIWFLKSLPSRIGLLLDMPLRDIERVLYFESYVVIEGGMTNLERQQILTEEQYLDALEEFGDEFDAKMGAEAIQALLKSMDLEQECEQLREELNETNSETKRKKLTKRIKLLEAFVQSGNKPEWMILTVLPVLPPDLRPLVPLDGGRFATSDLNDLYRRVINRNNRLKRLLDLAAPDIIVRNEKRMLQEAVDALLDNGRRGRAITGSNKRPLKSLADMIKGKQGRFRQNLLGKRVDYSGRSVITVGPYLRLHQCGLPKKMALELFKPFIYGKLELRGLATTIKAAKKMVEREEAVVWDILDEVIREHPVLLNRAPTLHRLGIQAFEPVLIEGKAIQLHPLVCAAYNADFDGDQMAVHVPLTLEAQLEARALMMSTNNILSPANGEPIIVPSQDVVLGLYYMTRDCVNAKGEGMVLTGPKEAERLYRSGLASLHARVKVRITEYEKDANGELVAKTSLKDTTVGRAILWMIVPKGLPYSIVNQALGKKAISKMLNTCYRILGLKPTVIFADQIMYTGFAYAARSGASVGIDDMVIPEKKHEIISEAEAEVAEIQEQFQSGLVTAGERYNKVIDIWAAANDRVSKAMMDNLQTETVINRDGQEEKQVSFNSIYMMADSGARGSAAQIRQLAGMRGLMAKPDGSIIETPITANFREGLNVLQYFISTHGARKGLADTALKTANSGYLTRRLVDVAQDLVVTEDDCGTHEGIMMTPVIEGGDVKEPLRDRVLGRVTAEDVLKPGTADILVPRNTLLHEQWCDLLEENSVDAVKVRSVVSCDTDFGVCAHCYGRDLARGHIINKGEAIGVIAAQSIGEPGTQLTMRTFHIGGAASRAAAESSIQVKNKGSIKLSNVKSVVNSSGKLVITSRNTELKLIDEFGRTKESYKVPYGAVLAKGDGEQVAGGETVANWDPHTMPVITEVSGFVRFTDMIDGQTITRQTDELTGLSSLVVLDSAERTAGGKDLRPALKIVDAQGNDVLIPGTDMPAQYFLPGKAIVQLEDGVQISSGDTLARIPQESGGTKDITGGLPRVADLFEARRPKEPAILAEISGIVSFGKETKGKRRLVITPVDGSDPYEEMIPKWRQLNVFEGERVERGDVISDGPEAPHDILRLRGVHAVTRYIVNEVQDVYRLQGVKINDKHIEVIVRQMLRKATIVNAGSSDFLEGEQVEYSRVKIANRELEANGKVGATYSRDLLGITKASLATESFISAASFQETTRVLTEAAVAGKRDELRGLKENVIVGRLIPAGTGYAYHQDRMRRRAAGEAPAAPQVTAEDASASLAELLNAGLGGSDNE

Sequence of β subunit of E. coli RNAP (P0A8V2 whole entry): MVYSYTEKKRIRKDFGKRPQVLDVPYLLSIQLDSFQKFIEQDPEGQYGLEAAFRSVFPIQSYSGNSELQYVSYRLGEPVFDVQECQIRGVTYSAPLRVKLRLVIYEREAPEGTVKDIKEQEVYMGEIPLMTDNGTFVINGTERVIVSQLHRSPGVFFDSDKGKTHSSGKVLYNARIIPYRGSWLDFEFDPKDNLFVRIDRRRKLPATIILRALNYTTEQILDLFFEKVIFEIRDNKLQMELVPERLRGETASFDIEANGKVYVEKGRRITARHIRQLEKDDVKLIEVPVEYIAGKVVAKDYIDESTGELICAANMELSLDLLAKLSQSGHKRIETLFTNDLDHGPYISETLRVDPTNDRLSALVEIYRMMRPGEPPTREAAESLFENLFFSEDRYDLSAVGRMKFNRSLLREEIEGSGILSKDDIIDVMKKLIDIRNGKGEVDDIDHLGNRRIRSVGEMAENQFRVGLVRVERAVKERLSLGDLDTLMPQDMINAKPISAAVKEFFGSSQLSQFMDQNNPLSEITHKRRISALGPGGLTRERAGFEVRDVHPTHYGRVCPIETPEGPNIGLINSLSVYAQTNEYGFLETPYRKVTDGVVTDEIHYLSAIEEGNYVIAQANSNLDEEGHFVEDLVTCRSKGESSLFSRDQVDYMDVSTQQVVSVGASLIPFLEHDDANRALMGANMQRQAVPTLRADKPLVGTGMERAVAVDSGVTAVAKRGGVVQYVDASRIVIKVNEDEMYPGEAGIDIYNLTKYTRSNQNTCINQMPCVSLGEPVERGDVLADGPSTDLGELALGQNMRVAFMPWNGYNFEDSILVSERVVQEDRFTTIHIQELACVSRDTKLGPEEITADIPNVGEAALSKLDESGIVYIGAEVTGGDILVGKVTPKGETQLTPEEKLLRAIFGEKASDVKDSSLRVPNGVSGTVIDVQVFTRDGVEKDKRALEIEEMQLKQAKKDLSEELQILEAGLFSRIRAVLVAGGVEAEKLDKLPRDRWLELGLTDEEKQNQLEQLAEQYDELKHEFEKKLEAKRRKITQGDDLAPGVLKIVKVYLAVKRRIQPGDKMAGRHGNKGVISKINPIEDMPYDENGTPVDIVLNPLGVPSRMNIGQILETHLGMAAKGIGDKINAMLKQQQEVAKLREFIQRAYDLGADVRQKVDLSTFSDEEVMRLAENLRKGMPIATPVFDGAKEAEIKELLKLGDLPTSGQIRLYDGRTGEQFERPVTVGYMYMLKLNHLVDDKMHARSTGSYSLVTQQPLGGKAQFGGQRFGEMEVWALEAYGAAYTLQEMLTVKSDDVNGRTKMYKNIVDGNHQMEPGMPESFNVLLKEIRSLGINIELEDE

B1: E. coli RapA protein (enzyme, UniProt P60240 1-968, looked up)
chain: MPFTLGQRWISDTESELGLGTVVAVDARTVTLLFPSTGENRLYARSDSPVTRVMFNPGDTITSHDGWQMQVEEVKEENGLLTYIGTRLDTEESGVALREVFLDSKLVFSKPQDRLFAGQIDRMDRFALRYRARKYSSEQFRMPYSGLRGQRTSLIPHQLNIAHDVGRRHAPRVLLADEVGLGKTIEAGMILHQQLLSGAAERVLIIVPETLQHQWLVEMLRRFNLRFALFDDERYAEAQHDAYNPFDTEQLVICSLDFARRSKQRLEHLCEAEWDLLVVDEAHHLVWSEDAPSREYQAIEQLAEHVPGVLLLTATPEQLGMESHFARLRLLDPNRFHDFAQFVEEQKNYRPVADAVAMLLAGNKLSNDELNMLGEMIGEQDIEPLLQAANSDSEDAQSARQELVSMLMDRHGTSRVLFRNTRNGVKGFPKRELHTIKLPLPTQYQTAIKVSGIMGARKSAEDRARDMLYPERIYQEFEGDNATWWNFDPRVEWLMGYLTSHRSQKVLVICAKAATALQLEQVLREREGIRAAVFHEGMSIIERDRAAAWFAEEDTGAQVLLCSEIGSEGRNFQFASHMVMFDLPFNPDLLEQRIGRLDRIGQAHDIQIHVPYLEKTAQSVLVRWYHEGLDAFEHTCPTGRTIYDSVYNDLINYLASPDQTEGFDDLIKNCREQHEALKAQLEQGRDRLLEIHSNGGEKAQALAESIEEQDDDTNLIAFAMNLFDIIGINQDDRGDNMIVLTPSDHMLVPDFPGLSEDGITITFDREVALAREDAQFITWEHPLIRNGLDLILSGDTGSSTISLLKNKALPVGTLLVELIYVVEAQAPKQLQLNRFLPPTPVRMLLDKNGNNLAAQVEFETFNRQLNAVNRHTGSKLVNAVQQDVHAILQLGEAQIEKSARALIDAARNEADEKLSAELSRLEALRAVNPNIRDDELTAIESNRQQVMESLDQAGWRLDALRLIVVTHQ
B1: binds [1]; binds [2].
